Assay results reported in the supplement of paper PMC10126150.
± gives the standard deviation of the averaged measurements.

Test system: ATP
Assay: switch fluorescence ratio, 500 uM ATP over buffer (Cy3 cluster intensity, sum of 5 cycles each) (fold (ratio)); higher = stronger signal-on switching upon ATP binding; sequences stand for … in TCGTCGGCAGCGTCAGATGTGTATAAGAGACAGTTTTTTTTTTTTTTTTTTTTTTTTT…TC
Conditions: aptamer strand: ATP DNA aptamer (quencher-CACCTGGGGGAGTATTGCGGAGGAAGG + anchor), 100 nM annealed; ATP concentration: 500 uM
In short: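 Between each of five buffer/ATP cycles, the flow-cell was stripped with NaOH and re-annealed. Each cycle imaged Cy3-labelled switching-strand clusters, annealed to 100 nM quencher-labelled ATP aptamer on a modified Illumina MiSeq flow-cell, first in selection buffer and then after 15 min with 500 uM ATP at 22 °C. The fluorescence ratio is summed target-cycle over summed buffer-cycle Cy3 intensity per cluster, averaged per switch-domain sequence, with clusters outside 100-1000 RFU excluded.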
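Note: ATP exposure 15 min at 22 °C before imaging.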

| Sequence | switch fluorescence ratio |
| --- | --- |
| CGGACCGGGA | 1.06 ± 0.012 |
| CGGACGACGG | 1.01 ± 0.027 |
| CGGACGGGTG | 1.02 ± 0.018 |
| CGGACGTTTT | 1.17 ± 0.13 |
| CGGACTAAGA | 1.04 ± 0.012 |
| CGGACTAGTT | 0.994 ± 0.022 |
| CGGACTCCCA | 1.753 ± 0.014 |
| CGGACTGATT | 1 ± 0.064 |
| CGGAGAGATG | 1.042 ± 0.0034 |
| CGGAGATACG | 1.02 ± 0.029 |
| CGGAGCTCTG | 1.06 ± 0.015 |
| CGGAGGAACG | 1.01 ± 0.038 |
| CGGAGGACAA | 0.976 ± 0.012 |
| CGGAGGACCA | 0.978 ± 0.023 |
| CGGAGGACGG | 1.03 ± 0.032 |
| CGGAGGGAAA | 0.963 ± 0.033 |
| CGGAGGGATC | 1.12 ± 0.037 |
| CGGAGGGGGT | 1.016 ± 0.0052 |
| CGGAGGTAGG | 1.01 ± 0.043 |
| CGGAGGTATA | 1.14 ± 0.017 |
| CGGAGGTTTC | 1.02 ± 0.03 |
| CGGAGTACAG | 1.09 ± 0.11 |
| CGGAGTAGGG | 1.058 ± 0.0023 |
| CGGAGTTAGC | 1.13 ± 0.028 |
| CGGATAGGTT | 1.01 ± 0.017 |

| Sequence | switch fluorescence ratio |
| --- | --- |
| CGGATATATA | 1.08 ± 0.049 |
| CGGATCAGAA | 0.9956 ± 0.001 |
| CGGATCCCGA | 0.995 ± 0.018 |
| CGGATCGGGG | 1.17 ± 0.15 |
| CGGATCGGGT | 1.004 ± 0.0015 |
| CGGATCTGGT | 0.968 ± 0.024 |
| CGGATCTTTA | 1.01 ± 0.037 |
| CGGATGAATG | 0.999 ± 0.029 |
| CGGATGCATG | 1.02 ± 0.046 |
| CGGATGGTGT | 0.97 ± 0.029 |
| CGGATTAATT | 0.9862 ± 0.0024 |
| CGGATTCGGA | 1.012 ± 0.01 |
| CGGATTGAAG | 1.007 ± 0.0092 |
| CGGATTTTAT | 1.02 ± 0.035 |
| CGGCAAGTAT | 1.063 ± 0.0089 |
| CGGCAGCGAG | 1.078 ± 0.0015 |
| CGGCAGGCAC | 1.21 ± 0.037 |
| CGGCAGTTCG | 0.979 ± 0.014 |
| CGGCATATAG | 1.99 ± 0.2 |
| CGGCATTCAA | 0.9989 ± 0.0057 |
| CGGCCATTCG | 0.982 ± 0.021 |
| CGGCCGAACT | 1.033 ± 0.0064 |
| CGGCCGAGGT | 1.02 ± 0.02 |
| CGGCCGGACT | 1.01 ± 0.047 |
| CGGCCGGGGT | 1.035 ± 0.0058 |

| Sequence | switch fluorescence ratio |
| --- | --- |
| CGGCCGTTCG | 1.1 ± 0.14 |
| CGGCCTACAG | 1.05 ± 0.028 |
| CGGCCTCTGC | 1.15 ± 0.091 |
| CGGCCTGCG | 1.02 ± 0.1 |
| CGGCCTTGGT | 1.01 ± 0.044 |
| CGGCGCTTCT | 1.1 ± 0.028 |
| CGGCGGCGGG | 1.03 ± 0.015 |
| CGGCGGGCAA | 1.81 ± 0.69 |
| CGGCGGGGAA | 0.9757 ± 0.00091 |
| CGGCTGACGA | 1.03 ± 0.041 |
| CGGCTGGCTT | 1 ± 0.033 |
| CGGCTGTGTG | 0.974 ± 0.02 |
| CGGGAAATTG | 0.9893 ± 0.0035 |
| CGGGAACATT | 1.01 ± 0.017 |
| CGGGAAGGAG | 0.9685 ± 0.0053 |
| CGGGACGCGA | 1.28 ± 0.043 |
| CGGGACGGGG | 0.967 ± 0.022 |
| CGGGACTTGT | 0.952 ± 0.067 |
| CGGGAGACAT | 1.01 ± 0.014 |
| CGGGAGACGG | 1.31 ± 0.26 |
| CGGGAGGGAA | 1.02 ± 0.023 |
| CGGGAGGGGA | 1 ± 0.025 |
| CGGGAGTGCG | 1.02 ± 0.024 |
| CGGGATAGTA | 0.994 ± 0.041 |
| CGGGATCATT | 0.958 ± 0.017 |

| Sequence | switch fluorescence ratio |
| --- | --- |
| CGGGATGGCC | 1 ± 0.018 |
| CGGGATGTAG | 0.987 ± 0.026 |
| CGGGATTGGT | 1.01 ± 0.13 |
| CGGGCAAGGG | 1.19 ± 0.029 |
| CGGGCAATCA | 1.58 ± 0.11 |
| CGGGCACGTG | 0.946 ± 0.021 |
| CGGGCAGAGG | 0.993 ± 0.01 |
| CGGGCAGCTG | 1.04 ± 0.048 |
| CGGGCAGGGC | 1.04 ± 0.019 |
| CGGGCCCGTA | 0.961 ± 0.094 |
| CGGGCCGACT | 1.01 ± 0.039 |
| CGGGCCTCCG | 1.152 ± 0.0046 |
| CGGGCGAATT | 0.982 ± 0.014 |
| CGGGCGATGG | 1.08 ± 0.017 |
| CGGGCGCACT | 1.06 ± 0.037 |
| CGGGCGCTGA | 0.9837 ± 0.004 |
| CGGGCGGCGG | 0.9921 ± 0.0076 |
| CGGGCTCAAC | 1.033 ± 0.0071 |
| CGGGCTGAAT | 0.987 ± 0.025 |
| CGGGCTGGAA | 1.004 ± 0.0086 |
| CGGGCTGTTT | 0.977 ± 0.013 |
| CGGGCTTAAA | 1 ± 0.018 |
| CGGGGAAGGA | 1.016 ± 0.006 |
| CGGGGAAGGC | 1.13 ± 0.065 |
| CGGGGAATAG | 1.16 ± 0.094 |
